Results as given in the RNAGym collection of RNA variant scans (doi:10.1073/pnas.2313332121).

B1: TPR t1 (parent)
chain: GACCAAUCUGCCCUCAGAGCUCGAGAACAUCUUCGGAUGCAGAGGAGGCAGGCUUCGGUGGCGCGAUAGCGCCAACGUCCUCAACCUCCAAUGCAUCCCACCACAUGAUGAUGCCUGAAGAGCCUUGGUUUUUUG

Variants of: B1
Experiment: polymerase ribozyme fitness, log enrichment relative to wild type (log ratio); higher = more active; in vitro selection for triplet polymerase activity
How it was run: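 Frozen incubation at −7 °C formed the core of a single, triplicate in vitro selection round applied to PCR-built, transcribed mutant libraries of each subunit of a heterodimeric triplet polymerase ribozyme. Extended constructs were gel-excised, captured with streptavidin beads and amplified by RT-PCR, and input and output libraries were Illumina-sequenced with a filter of ≥10 input reads and ≥1 read per output. Fitness is the logarithm of genotype enrichment relative to wild-type enrichment, with inverse-variance-weighted replicate averaging, and the logarithm is base 2.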

Point of comparison: GACCAAUCUGCCCUCAGACCUCGAGAACAUCUUCGGAUGCUGAGGAGGCAGGCUUCGGUGGCGCGAUAGCGCCAACGUCCUCAACCUCCAAUGCAUCCCACCACAUGAUGAUGCCUGAAGAGCCUUGGUCUUUUG [G19C A41U U130C], “polymerase ribozyme fitness (log ratio)” value -2.43. Against it:
- GACCAAUCUGCCCUCAGAACUCGAGAACAUCUUCGGAUGCAGAGGAGACAGGCUUCGGUGGCGCGAUAGCGCCAACGUCCUCAACCUCCAGUGCAUCCCACCACAUGAUGAUGCCUGAAGAGCCUUGGUUUUUUG [G19A G48A A91G] — lower, -3.87
- GACCAAUCUGCCCUCAGACUUCGAGAACAUGUUCGGAUGCAGAGGAGGCAGGCUUCGGUGGCGCGAUAGCGCCAACGUCCUCAACCUCUAAUGCAUCCCACCACAUGACGAUGCCUGAAGAGUCUUGGUUUUUUG [G19C C20U C31G C89U U109C C123U] — lower, -7.81
- GACCAAUCUGCCCUCAGAACUCGAGAACAUCUUCGGAUGCAGAGGAGGCAGGCUUCGGUGGCGCGAUAGCGCCAACGUCCUCAACCUCCAAUGCAUCCCACCACAAGAUGAUGCCUGAAGAGCCUUGGUUUUUUG [G19A U106A] — lower, -2.97
- GACCAAUCUGCCCUCAGACCUCGAGAACAUCUUCGGAUGCUGAGGAGGCAGGCUUCGGUGGCGCGAUAGCACCAACGUCCUCAACCUGUAAUGCAUCCCACCAAAUGAUGAUGCCUGAAGAGCUUUGGUUUUUUG [G19C A41U G71A C88G C89U C104A C124U] — lower, -5.88
- GACCAAUCUGCCCUCAGACCUCGAGAACAUCUUCGGAUGCAGAGGAGGCAGGCUUCGGUGGCGCGAUAGCGCCAACGUCCUCAACCUCCAAUGCAUCCCACCACAUGAUGAUGCCUGAAGAGCCUUGGUUUUUUG [G19C] — higher, -1.91
- GACCAAUCUGCCCUCAGAACUCGAGAACAUCUUCGGAUGCAGAGGAGGCAGGCUUCGGUGGCGCGAUAGCGCCAACGUCCUCAACCUCCAAUGCAUCCCACCACAUGAUGAUGCCUGAAGAGCCUUGGUUUUUUG [G19A] — within 0.2 log units, -2.28
- GACCAAUCUGCCCUCAGAACUCGAGAACAUCUUCGGAUGCAGAGGAGGCAGGCUUCGGUGGCGCGAUAGAGCCAACGUCCUCAACCUCCAAUGUAUCCCACCACAUGAUGAUGCCUGAAGAGCCUUGGUUUUUUG [G19A C70A C94U] — lower, -5.61
- GACCAAUCUGCCCUCAGAACUCGAGAACAUCUUCGGAUGUAGAGGAGGCAGGAUUCGCUGGCGCGAUAGCGCCAACGUCCUCAACCUCCAAUUCAUCCCACCACAUGAUGAUGCCUGAAGAGCCUUGGUUUUUUG [G19A C40U C53A G58C G93U] — lower, -4.4
- GACCAAUCUGCCCUCAGAACUCGAGAACAUCUUCGGAUGCAGAGGAGGCAGGCUUCGCUGGCGCGAUAGCGCCAACGUCCUCAACCUCCAAUGCAUCCCACCACAUAAUGAUGUCUGAAGAGCCUUGGUUUUUUG [G19A G58C G107A C114U] — lower, -3.12
- GACCAAUCUGCCCUCAGAACUCGAGAACAUCUUCGGAUGCUGAGGAGGCAGGCUUCGGUGGUGCGAUAGCGCCAACGUCCUCAACCUCCAAUGUAUCCCACCACAUGAUGAUGCCUGAAGAGCCUUGGUUUUUUG [G19A A41U C62U C94U] — lower, -3.23
- GACCAAUCUGCCCUCAGACCUCGAGAACAUGUUCGGAUGCAGAGGAGGCAGGCUUCGGUGGCGCGAUAGCGGCAACGUCCUCAACCUCCAAUGCAUCCCACCACAUGAUUAUGCCUGAAGAGCCUUGGUUAUUUG [G19C C31G C72G G110U U131A] — lower, -7.2
- GACCAAUCUGCCCUCAGAACUCGAGAACAUCUUCGGAUGCAGAGGAGGGAGGCUUCGGUGGCCCGAUAGCGCCAACGUCCUCAACCUCCAAUCCAUCCCACCACCUCAUGAUGCCUCAAGAGCCUUGGUUUUUUG [G19A C49G G63C G93C A105C G107C G117C] — lower, -6.07
- GACCAAUCUGCCCUCAGAACUCGAGAACAUCUUCGGAUGCAGAGGAGGCAGGCUUCGGUAGCGCGAUAGCGCCAACGUCCUCAACCUCCAAUGCAUCCCACCACAUGAUGAUGCCUGAAGAGCCUUGGUUUUUUG [G19A G60A] — higher, -1.41
- GACCAAUCUGCCCUCAGUGCUCGAGAACAUCUUCGGAUGCAGAGGAGGCAGGCUGGGGUGGCGCGAUAGCGCCAACGUCCUCAACCUCCAAUGCAUCCCACCACAUGAUGAUGCCUGAAGAGCCUUGGUUUUUUG [A18U U55G C56G] — lower, -4.5
- GACCAAUCUGCCCUCAGAACUCGAGAACAUCUUCGGAUGCAGAGGAGGCAGGCUUCGGUGGCGCGAUAGCGCGAACUUCCUCAACCUCCAAUGCAUCCCACCACAUGAUGAAGCCUGAAGAGCCUUGAUUUUUUG [G19A C73G G77U U112A G128A] — within 0.2 log units, -2.41
- GACCAAUCUGCCCUCAGAAUUCGAGAACAUCUUCGGAUGCAGAGGAGGCAGGCUGCUGUGGCGCGAUAGCGCCAACGUCCUCAACCUCCAAUGCAUCCAACCACAUGAUGAUUCCUGAAGAGCCUUGGUUUUUUG [G19A C20U U55G G57U C99A G113U] — lower, -6.19
- GACCAAUCUGCCCUCAGUGCUCGAGAACAUCUUCGGAUGCAGAGGAGGCAGGCUUCGGUGGCGCGAUAGCGCCAACGUCCUCAACCUCCAAUGCAUCCCACCACAUGAUGAUGCCCAAAGAGCCUUGGUUUUUUG [A18U U116C G117A] — lower, -4.83
- GACCAAUCUGCCCUCAGAACUCGAGAACAUCUUCGGAUUCAGAGGAGGCAGGCUUCGGUGUCGCGAUAGCGCCAACGUCCUCAACCUCCAAUGCAUCCCACCACAUGAUGAUGCCUGAACAGCCUUGGUUUAUUG [G19A G39U G61U G120C U132A] — higher, -1.96
- GACCAAUCUGCCCUCAGAACUCGAGAACAUCUUCGGAUGCAGAGGAGGCAUGCUUCGGUAGCGCGAUAGCGCCAACGUCCUCAACCUCCAAUGCAUCCCACCACAUGAUGAUGCCUGAAGAGCUUUGGUUUUUUG [G19A G51U G60A C124U] — lower, -5.85
- GACCAAUCUGCCCUCAGAACUCGAGAACGUCUUCGGAUGCAGAGGAGGCAGGCUUCGGUGGCGCGAUAGCGCCAACGUCCUCAACCUCCAAUGCAUCCCACCACAUGAUGAUGCCUGAAGAGCCUUGGUUUUUUG [G19A A29G] — lower, -3.47
